Data reported in publication PMC11968997.
Like-named read-outs stand apart in the source and are kept apart here.

Substance	degradation_or_half_life (other: succinylation at K83)	enzymatic_activity (other: succinylation at K83)	other (other: succinylation at K83)	enzymatic_activity (phosphorylation at S293)
PDHA1: K83R	no change	decreases	increases	
PDHA1: K83R S293A (compared with K83R)				increases
